From patent US20210130452A1 (Merck KGaA, published 2021)
Numbering of substitutions follows the chain as printed. Where two headings read alike, the source gives them in different places.

T1: rat IL-17A (rat, UniProt Q61453 18-150, limits assumed)
T1 sequence (looked up): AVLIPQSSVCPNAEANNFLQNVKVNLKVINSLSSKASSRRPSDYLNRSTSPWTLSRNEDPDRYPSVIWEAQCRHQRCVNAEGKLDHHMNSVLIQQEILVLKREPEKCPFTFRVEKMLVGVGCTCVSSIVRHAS

T2: mouse IL-17A (mouse, UniProt Q62386 26-158)
T2 sequence (looked up): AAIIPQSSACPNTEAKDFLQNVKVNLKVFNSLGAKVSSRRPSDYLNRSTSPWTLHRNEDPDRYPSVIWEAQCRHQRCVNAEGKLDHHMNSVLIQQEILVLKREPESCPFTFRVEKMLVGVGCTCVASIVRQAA

T3: marmoset IL-17A (marmoset, IL-17A is a disulfide-linked homodimer. One chain is given.)
T3 chain: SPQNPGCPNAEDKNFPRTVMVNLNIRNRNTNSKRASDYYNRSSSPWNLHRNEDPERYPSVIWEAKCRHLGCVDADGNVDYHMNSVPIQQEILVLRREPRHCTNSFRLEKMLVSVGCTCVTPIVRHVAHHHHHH

T4: mouse IL-17F (mouse, UniProt Q7TNI7 29-161)
T4 sequence (looked up): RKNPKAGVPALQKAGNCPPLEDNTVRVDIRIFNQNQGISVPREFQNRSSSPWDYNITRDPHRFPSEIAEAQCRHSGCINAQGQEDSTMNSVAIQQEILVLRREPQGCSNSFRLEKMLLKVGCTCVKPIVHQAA

T5: rat IL-17F (rat, UniProt Q5BJ95 29-161)
T5 sequence (looked up): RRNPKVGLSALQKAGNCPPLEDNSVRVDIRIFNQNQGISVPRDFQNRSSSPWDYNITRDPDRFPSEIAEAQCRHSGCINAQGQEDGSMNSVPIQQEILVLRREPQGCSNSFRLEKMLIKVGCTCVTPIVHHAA

T6: human IL-17F (human, UniProt Q96PD4 31-163)
T6 construct: made in Hek293 cells (GenBank AF384857); also called hIL-17F; hIL17F
T6 sequence: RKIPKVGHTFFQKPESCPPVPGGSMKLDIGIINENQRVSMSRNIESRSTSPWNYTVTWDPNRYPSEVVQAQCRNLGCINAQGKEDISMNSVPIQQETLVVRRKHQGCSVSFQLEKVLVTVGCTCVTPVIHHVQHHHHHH

T7: mouse IL-17A (mouse, UniProt Q62386 26-158)
T7 sequence (looked up): T2 sequence (looked up)

T8: rat IL-17A (rat, UniProt Q61453 18-150, limits assumed)
T8 construct: made in E. coli, bought
T8 sequence (looked up): T1 sequence (looked up)

T9: human IL-17C (human, UniProt Q9P0M4 19-197)
T9 construct: expressed in E. coli; also called hIL-17C
T9 sequence (looked up): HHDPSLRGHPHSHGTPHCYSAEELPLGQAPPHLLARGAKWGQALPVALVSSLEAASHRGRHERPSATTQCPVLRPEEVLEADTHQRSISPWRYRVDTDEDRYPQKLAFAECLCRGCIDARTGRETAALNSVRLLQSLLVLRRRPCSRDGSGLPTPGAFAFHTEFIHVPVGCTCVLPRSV

T10: human IL-17B (human, UniProt Q9UHF5 21-180)
T10 construct: expressed in E. coli; also called hIL-17B
T10 sequence (looked up): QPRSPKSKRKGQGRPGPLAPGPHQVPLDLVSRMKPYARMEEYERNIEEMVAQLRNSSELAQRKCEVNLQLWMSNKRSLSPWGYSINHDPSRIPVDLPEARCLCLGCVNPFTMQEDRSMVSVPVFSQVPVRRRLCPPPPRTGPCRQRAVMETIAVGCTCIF

T11: human IL-17D (human, UniProt Q8TAD2 18-202, limits assumed)
T11 construct: expressed in E. coli; also called hIL-17D
T11 sequence (looked up): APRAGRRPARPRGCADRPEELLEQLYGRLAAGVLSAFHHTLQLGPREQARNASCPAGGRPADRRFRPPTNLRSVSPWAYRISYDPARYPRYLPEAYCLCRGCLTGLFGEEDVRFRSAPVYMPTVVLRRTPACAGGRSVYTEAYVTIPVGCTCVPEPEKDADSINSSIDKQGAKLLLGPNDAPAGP

T12: human IL-17E (human, UniProt Q9H293 33-177)
T12 construct: expressed in E. coli; also called hIL-17E
T12 sequence (looked up): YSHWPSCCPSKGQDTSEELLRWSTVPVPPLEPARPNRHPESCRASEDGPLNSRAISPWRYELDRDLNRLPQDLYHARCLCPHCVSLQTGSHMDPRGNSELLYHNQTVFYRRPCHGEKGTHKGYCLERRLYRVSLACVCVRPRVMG

B1: 03C07 (VHH)
VHH: EVQLVESGGGLVQAGGSLRLSCAASGFTFDDYAIGWFRQAPGKEREAVSCFSSSDGSIYYADSVKGRFTISSDNAKNTVYLQMNSLKPEDTAVYYCAGGGGSYYYTQLNYCYDMDYWGKGTQVTVSS
notes: Class 2
B2: 13B05 (VHH)
VHH: EVQLVESGGRLVQAGGSLRLSCAASGRTFTSYPMGWFRQAPGKEREFVAAISMSGDDTAYTDFVRGRFTISRDDARNTVYLHMTSLKPEDTAVYYCAARTSYDGTYDYIDDYSYWGQGTQVTVSS
notes: Class 4
B3: IL17MS3038 (VHH)
VHH: EVQLVESGGGLVQAGGSLRLSCAASGRTYDAVGWLRQAPGKEREFVAAISGSGDDTYYADSVKGRFTISKDNAGITMYLQMNSLKPEDTAVYYCATRRGLYYVWDSNDYENWGQGTQVTVSS
notes: variant of IL17MS13E02; Kabat numbering
B4: IL17MS3039 (VHH)
VHH: B3 VHH with V32M, M77V
notes: as for B3
B5: 11C08 (VHH)
VHH: EVQLVESGGGLVQAGGSLRLSCAASGVIFRLNAMGWYRAAPGKQRELVAIIVNGGSTNYADSVKGRFTISRDSAKNAVYLQMNSLKPEDTAVYYCYYNIPGDVYWGQGTQVTVSS
notes: Class 4
B6: IL17MS3043 (VHH)
VHH: EVQLVESGGGSVQPGGSLRLSCAASGRANSINWFGWFRQTPGKEREFVAGIRWSDAYTEYANSVKGRFTISRDNSKNTVYLQMDSLRPEDTAVYYCVLDLSTVRYWGQGTLVTVSS
notes: variant of IL17MS13B03; Kabat numbering
B7: IL17MS3046 (VHH)
VHH: B6 VHH with G16D, N62A, Y80D
notes: as for B6
B8: IL17MS3048 (VHH)
VHH: B6 VHH with G16D, Y80D, D84N
notes: as for B6
B9: IL17MS3044 (VHH)
VHH: B6 VHH with S11L, G16D, Y80D
notes: as for B6
B10: IL17MS3049 (VHH)
VHH: B6 VHH with G16D, T40A
notes: as for B6
B11: IL17MS3045 (VHH)
VHH: B6 VHH with G16D, T40A, Y80D
notes: as for B6
B12: IL17MS3050 (VHH)
VHH: B6 VHH with Y80D
notes: as for B6
B13: 02A08 (VHH)
VHH: EVQLVESGGGVVQPGGSLRLSCADSERSFSFNAMGWFRQAPGKEREFVAAISATGDDTYYADSVKGRFAISRDTARNTVYLQMNSLKPEDTAVYYCGARVNFDGTVSYTNDYAYWGQGTQVTVSS
notes: Class 2
B14: 02A08 (VHH)
VHH: B13 VHH
notes: Class 2
B15: 13E05 (VHH)
VHH: EVQLVESGGGKVQAGDSLTLSCVASGGTFSNYAAWFRQAPGKDRRELVVSIFRTGSITYTADSVKGRFTASRVNTKNTVYLQMNSLKPEDTAVYYCASAYNPGVGYDYWGQGTQVTVSS
notes: Class 4

How the values were obtained:
human IL-17A [1] = target: T13, human IL-17A (human, UniProt Q16552 24-155); test: SPR, IL-17A-Nanobody complex over captured IL-17RA
T13 construct: secreted form (GenBank U32659) expressed in Hek293 with C-terminal 6-His; also called hIL-17A; IL-17A-6HIS
T13 sequence (Q16552 other isoform, or with tags, fused parts or gaps): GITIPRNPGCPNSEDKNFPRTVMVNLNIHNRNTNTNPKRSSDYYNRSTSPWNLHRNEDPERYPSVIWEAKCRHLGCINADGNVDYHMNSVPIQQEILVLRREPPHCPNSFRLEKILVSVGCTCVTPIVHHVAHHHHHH
From the text: The receptor (IL-17RA or IL-17RC) was captured via its human Fc-tail by an anti-human IgG-Fc antibody coated on the chip.

human IL-17A [2] = target: T13, human IL-17A; test: ELISA, coated IL-17A
Method: (§1) Binding of a selected panel of anti-IL-17 Nanobodies to IL-17 of other species was assessed using a binding ELISA. […] HRP (horseradish peroxidase) conjugated anti-myc (Serotec, MCA 2200P) was used for detection using esTMB as substrate.

rat IL-17A [3] = target: T1, rat IL-17A; test: ELISA, coated IL-17A
Method: as §1

mouse IL-17A [4] = target: T2, mouse IL-17A; test: ELISA, coated IL-17A
Method: as §1

guinea pig IL-17A = guinea pig IL-17A (guinea pig); test: ELISA, coated IL-17A
Method: as §1

marmoset IL-17A = target: T3, marmoset IL-17A; test: ELISA, coated IL-17A
Method: as §1

mouse IL-17F = target: T4, mouse IL-17F; test: ELISA, coated IL-17F;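 note: binding ELISA on coated antigen from various species, with bound Nanobodies revealed by an HRP-linked anti-myc antibody and esTMB substrate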
Method: as §1

rat IL-17F = target: T5, rat IL-17F; test: ELISA, coated IL-17F;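 note: binding ELISA on coated antigen from various species, with bound Nanobodies revealed by an HRP-linked anti-myc antibody and esTMB substrate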
Method: as §1

human IL-17F [5] = target: T6, human IL-17F; test: AlphaScreen hIL-17F-IL-17RC; vs IL17MS13E02
human IL-17F [6] = target: T6, human IL-17F; test: SPR (Biacore) off-rate
[7] = target: T14, human IL-17A/F heterodimer (human, UniProt Q16552 24-155; Q96PD4 31-163, limits assumed); test: SPR (Biacore) off-rate
T14 construct: bought, made in E. coli (R&D Systems 5194-IL/CF); also called hIL-17A/F; hIL17A/F
T14 sequence (Q16552 24-155 limits assumed, chain 1 of 2, one chain of several): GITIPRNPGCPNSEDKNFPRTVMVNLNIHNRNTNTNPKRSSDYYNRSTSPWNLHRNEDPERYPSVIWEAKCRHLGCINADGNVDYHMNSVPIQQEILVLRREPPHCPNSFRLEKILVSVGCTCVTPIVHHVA

human IL-17A [8] = target: T15, human IL-17A (human, UniProt Q16552 24-155); test: SPR (Biacore) off-rate
T15 construct: secreted form made in Hek293 cells (GenBank U32659); also called hIL-17A; hIL17A
T15 sequence (Q16552 other isoform, or with tags, fused parts or gaps): as the sequence (Q16552 other isoform, or with tags, fused parts or gaps) above

human IL-17F [9] = target: T6, human IL-17F; test: SPR (Biacore) off-rate; remark: listed apart in the source
[10] = target: T14, human IL-17A/F heterodimer; test: SPR (Biacore) off-rate; remark: listed apart in the source
human IL-17A [11] = target: T15, human IL-17A; test: SPR (Biacore) off-rate; remark: listed apart in the source
mouse IL-17A [12] = target: T7, mouse IL-17A; test: binding ELISA
Method: as §1

rat IL-17A [13] = target: T8, rat IL-17A; test: binding ELISA
Method: as §1

human IL-17C = target: T9, human IL-17C; test: SPR, cytokine on chip
From the text: (§2) Human IL-17B, IL-17C, IL-17D or IL-17E were all expressed in E. coli, and covalently bound to a CM sensor chip surface via amine coupling using EDC/NHS for activation and HCl for deactivation.
(§3) Next, binding buffer was sent over the chip at the same flow rate to allow spontaneous dissociation of bound Nanobody or antibody.

human IL-17B = target: T10, human IL-17B; test: SPR, cytokine on chip
From the text: as §2, §3

human IL-17D = target: T11, human IL-17D; test: SPR, cytokine on chip
From the text: as §2, §3

human IL-17E = target: T12, human IL-17E; test: SPR, cytokine on chip
From the text: as §2, §3

Binder | % Biacore binding (IL-17A-NB)-IL-17RA (human IL-17A [1]) [%] | OD (human IL-17A [2]) [OD] | OD (rat IL-17A [3]) [OD] | OD (mouse IL-17A [4]) [OD] | OD (guinea pig IL-17A) [OD] | OD (marmoset IL-17A) [OD] | OD (rat IL-17F) [OD] | koff (human IL-17F [9]) [s⁻¹] | koff [10] [s⁻¹] | koff (human IL-17A [11]) [s⁻¹] | other results
B1 | -0.08 | 1.7 | 0.003 | -0.004 | 0.004 | 1.7 | 0.0015 | – | – | – | OD (mouse IL-17F): 0.0005 OD
B2 | -0.89 | 1.82 | 0.003 | -0.006 | 0.001 | 1.91 | 0.0095 | – | – | – | OD (mouse IL-17F): 0.0205 OD
B3 | – | – | – | – | – | – | – | – | – | – | IC50 fold difference vs WT (human IL-17F [5]): 3.2 fold; koff (human IL-17F [6]): 0.0101 s⁻¹; koff [7]: 6.82e-05 s⁻¹; koff (human IL-17A [8]): 0.000225 s⁻¹
B4 | – | – | – | – | – | – | – | – | – | – | IC50 fold difference vs WT (human IL-17F [5]): 1.25 fold; koff (human IL-17F [6]): 0.00515 s⁻¹; koff [7]: 4.03e-05 s⁻¹; koff (human IL-17A [8]): 0.00021 s⁻¹
B5 | 3.25 | 1.71 | 0.002 | -0.005 | 0.002 | 0.671 | 0.0005 | – | – | – | OD (mouse IL-17F): -0.0025 OD
B6 | – | – | – | – | – | – | – | 0.00811 | 0.000585 | 0.000276 | –
B7 | – | – | – | – | – | – | – | 0.00848 | 0.000515 | 0.000281 | –
B8 | – | – | – | – | – | – | – | 0.00874 | 0.000665 | 0.000295 | –
B9 | – | – | – | – | – | – | – | 0.00776 | 0.000253 | 0.000212 | –
B10 | – | – | – | – | – | – | – | 0.00757 | 0.000248 | 0.00015 | –
B11 | – | – | – | – | – | – | – | 0.00794 | 0.000616 | 0.00027 | –
B12 | – | – | – | – | – | – | – | 0.00855 | 0.000575 | 0.000267 | –
B13 | 0.46 | 1.95 | 0.002 | -0.001 | 0.002 | 1.95 | 0.0035 | – | – | – | –
B14 | – | – | – | – | – | – | – | – | – | – | binding result (mouse IL-17A [12]): no binding (tested: 250 nM); binding result (rat IL-17A [13]): no binding (tested: 250 nM); binding result (human IL-17C): no binding; binding result (human IL-17B): no binding; binding result (human IL-17D): no binding; binding result (human IL-17E): no binding
B15 | 0.54 | 1.96 | 0.003 | 0.004 | 0.006 | 1.89 | 0.0025 | – | – | – | OD (mouse IL-17F): 0.0005 OD
